Among the data in paper PMC11353242 are percent reduction of MT binding against CEP55^FL values, retold here.

What all share (test): pull-down; GFP-CEP55 proteins (355 nM) bound to GFP-Trap Magnetic Agarose beads; taxol-polymerised MTs (545 nM tubulin), pH adapted to 7.5, incubated 1 h at 4 °C; 6 washes; bound MTs detected by Western blot against β tubulin; MTs bound to CEP55^FL set as 100%
Background: In western blotting, separated proteins are transferred to a membrane and probed.

Assay [1] deals with His-GFP-CEP55^59–428 (N- and C-termini deleted) (UniProt Q53EZ4).
Assay [2] addresses His-GFP-CEP55^59–464 (N-terminus, aa 1–58, deleted) (UniProt Q53EZ4).
For assay [3], the target named is His-GFP-CEP55^1–428 (C-terminus, aa 429–464, deleted) (UniProt Q53EZ4).

Consider “Microtubules polymerised with taxol from tubulin prepared from porcine brain (from UniProt P02550 1-451; Q767L7 1-444) (complex)”, for which the results for the percent reduction of MT binding against CEP55^FL in assay [1], in assay [2] and in assay [3] were 60%, 20% and 20%, respectively.
